Where two headings read alike, the source gives them in different places.
Experiments:
[1] = biological target: nonphosphorylated rat cardiac troponin complex (cTn-0P), Alexa647-labelled (rat) (UniProt Q4PP99); test: MST
[2] = biological target: Ser22/23 bisphosphorylated rat cardiac troponin complex (cTn-2P), Alexa647-labelled (rat) (UniProt Q4PP99); test: MST
[3] = biological target: N-terminal lobe of cardiac troponin C (NcTnC), Alexa647-labelled; test: MST
[4] = biological target: nonphosphorylated rat cardiac troponin complex (cTn-0P), Alexa647-labelled (rat) (UniProt Q4PP99); test: MST; remark: listed apart in the source
[5] = biological target: Ser22/23 bisphosphorylated rat cardiac troponin complex (cTn-2P), Alexa647-labelled (rat) (UniProt Q4PP99); test: MST; remark: listed apart in the source
[6] = biological target: rat cardiac troponin T (cTnT) (rat) (UniProt P50753); test: SEC-MALS

Kd [1] [µM]	Kd [2] [µM]	Kd [3] [µM]	Kd [4] [µM]	Kd [5] [µM]	stoichiometry N [6]	Substance
20	20	5	20	20	–	nonphosphorylated N-terminal fragment of rat cMyBP-C encompassing domains C0, C1, m-motif and C2 (cC0C2-0P) (domain or fragment)
–	–	–	–	–	1	rat cardiac troponin C (cTnC) (from UniProt Q4PP99 1-161) (natural protein)

Reference: article PMC9826837
